Assay results from patent US20160303245A1, “FATTY ACID DERIVATIVES OF DIMERIC INHIBITORS OF PSD-95” (UNIVERSITY OF COPENHAGEN, priority 2013, published 2016).

Experiments:
[1] = molecular target: Human Serum Albumin (human) (UniProt P02768); assay: calculated from KD(HSA) at 150 µM HSA (equation 2)
[2] = molecular target: Human Serum Albumin (human) (UniProt P02768); assay: calculated from KD at 588 µM HSA (equation 2)
[3] = molecular target: Human Serum Albumin (human) (UniProt P02768); assay: Transil XL HSA binding kit (immobilized HSA), unbound compound by RP-HPLC

UCCB01-144 (peptide) gave a fu (%), fraction unbound [1] of 67.9%, a fb (%), fraction bound to HSA [2] of 65.3% and a Kd [3] of 318 µM.
